Test results taken from patent US7700727B2, “Compositions and kits for detecting pathogen infection” (Biokit, S.A., priority 2003, dated 2010).

Tests used:
lysozyme [1] = target: T1, lysozyme (Homo sapiens, UniProt P61626); assay: Far Western blot lysozyme-protein interaction assay; assay type: binding; conditions: 1, 5 and 10 μg immobilized lysozyme per lane; washes with 0.05% Tween 20
T1 sequence (P61626 19-148): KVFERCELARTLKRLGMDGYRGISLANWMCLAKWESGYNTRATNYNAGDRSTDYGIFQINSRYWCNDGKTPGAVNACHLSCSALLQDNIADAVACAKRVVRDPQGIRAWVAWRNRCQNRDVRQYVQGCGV
Method: (§1) In order to test this hypothesis, a Far-Western blot lysozyme-protein interaction assay was performed. The assay is summarized in FIG. 5 and comprises generally the following three steps: (1) immobilization of purified lysozyme onto a membrane; (2) probing of the membrane with a ligand likely to bind directly to the lysozyme; and (3) immunodetection of the bound lysozyme-ligand. A detailed experimental procedure is presented below.
(§2) Purified chicken egg white lysozyme and human breast milk lysozyme were purchased from Sigma-Aldrich (Madrid, Spain). Two series of aliquot fractions containing 1 μg, 5 μg, and 10 μg of purified lysozyme and a protein molecular weight marker (SeeBlue Plus II™, Invitrogen SA, Barcelona, Spain) were separated electrophoretically through a 4-12% SDS-PAGE gel using the conditions recommended by the supplier (Invitrogen). […] The presence of lysozyme immobilized onto the PVDF membrane was assessed by staining for 1 minute with Ponceau S stain (Sigma-Aldrich, Madrid, Spain), and then destained by vigorous washing for 5 minutes with desionized water. The membrane was divided in two, each portion containing a protein ladder and three quantities of chicken or human lysozyme (1 μg, 5 μg and 10 μg per lane). […]

chicken lysozyme [2] = target: T2, chicken lysozyme (Gallus gallus, UniProt P00698); assay: Lysozyme inhibition assay (EnzCheck, fluorescein-labeled Micrococcus lysodeikticus); assay type: biochemical
T2 sequence (P00698 19-147): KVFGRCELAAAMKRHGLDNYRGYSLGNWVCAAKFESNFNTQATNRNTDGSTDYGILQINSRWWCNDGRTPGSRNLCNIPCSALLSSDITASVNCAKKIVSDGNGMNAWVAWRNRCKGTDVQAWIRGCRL
Method: (§3) To test this hypothesis, the antibacterial activity of both human and chicken lysozyme, in the presence or absence of GST-Tp17, was assayed using an EnzCheck® lysozyme assay kit (Molecular Probes, Eugene, Oreg.). The assay comprises the use of Fluorescein-labeled Micrococcus lysodeikticus bacterial cells as a fluorescent substrate of lysozyme. In this Gram positive bacterium, the peptidoglycan layer is directly accessible to lysozyme, and has been Fluorescein-labeled such that fluorescence is naturally quenched. Upon lysozyme hydrolysis, quenching is relieved and fluorescein is released in a quantity that is proportional to lysozyme activity. The following experimental protocol was used.
(§4) A typical 100 μl reaction consisted of 25 μl of lysozyme solution (10 units for chicken lysozyme or 50 units for human lysozyme, dissolved in deionized water), 25 μl of the test protein solution and 50 μl of a suspension of fluorescein-labeled Micrococcus lysodeikticus (50 μg/ml). The reaction was incubated for 45 minutes at 37° C. and the fluorescence was measured (λexc.=485 nm; λemi.=520 nm) using a fluorescence multi-well plate reader model FLx800 (Bio TEK instruments, Winoosky, Vt.) equipped with KC junior data acquisition software (Bio TEK Instruments, Winoosky, Vt.). Each experimental point was expressed as the mean and standard deviation corresponding to the reading of three independent wells. Wells containing 50 μl of deoinized water and 50 μl of Fluorescein-labeled Micrococcus lysodeikticus suspension were used as a blank. Two fold serial dilutions of test protein were used to vary the concentration of the test protein from 83.5 to 1.3 μg/well.

lysozyme [3] = target: T1, lysozyme; assay: as above; assay type: biochemical
Method: as §3, §4

chicken lysozyme [4] = target: T2, chicken lysozyme; assay: Far Western blot lysozyme-protein interaction assay; assay type: binding; design: Purified chicken egg white lysozyme; purchased Sigma-Aldrich (Madrid, Spain); host or cells: chicken egg white; conditions: 1, 5 and 10 μg immobilized lysozyme per lane; washes with 0.05% Tween 20
Method: as §1, §2

[5] = system: Micrococcus lysodeikticus; conditions: pH 6.24, 25° C., Micrococcus lysodeikticus suspension; cited from earlier work
lysozyme [6] = target: T1, lysozyme; assay: Lysozyme binding assay on spotted β-APP fragments with POD-labeled human lysozyme; conditions: 10 μg protein spotted; POD-huLYS diluted 1/1000
Method: To test whether the β-APP protein binds huLYS, we performed lysozyme binding assays using purified, recombinant forms of β-APP. Both sAPPα (product number: S9564) and sAPPα (302-612) (product number: S8065) were purchased from Sigma-Aldrich (Tres cantos, Madrid, Spain). 10 μg of each protein was spotted onto a Nytran membrane (Scleicher & Schuiell, Dassel, Germany). Non-specific adsorption sites were blocked by incubation for one hour in TBST-milk. After three washes with TBST, the membrane was incubated for one hour with horse radish peroxidase (POD)-labeled human lysozyme diluted 1/1000 in TBST-milk. Next, the membrane was washed three times, for 5 minutes each wash, with TBST. Staining was performed by adding 5 ml of POD chromogenic substrate (TMB, product number: T0565, Sigma). […] Moreover, the β-APP/huLYS protein complex likely serves as a diagnostic marker of Alzheimer's disease.

[7] = system: anti-T. pallidum antibodies in human sera; assay: Syphilis ELISA (Bioelisa, second and third generation format) with added lysozyme
Text: Syphilis screening is routinely performed using enzyme-linked immunosorbent assays (ELISA) kits. These kits detect the binding of anti-syphilis antibodies to T. pallidum antigens immobilized in the wells of a microtiter plate. Detection of the binding of anti-syphilis antibodies to the plate is normally carried out by means of either an enzyme-labeled antiserum directed against human Fc antibody chains (second generation kit) or an enzyme-labeled T. pallidum antigen (third generation kit).
All the reagents used in this study are provided by the commercial Bioelisa Syphilis 3.0 detection kit (Biokit S.A., Lliça d'Amunt, Spain). The protocol used is that recommended in the package insert of the kit. Briefly, serum or plasma samples are added to the wells of a microtiter plate. If antibodies specific for T. pallidum are present in the sample, they form stable complexes with the antigens on the well. After washing to remove the unbound material, a rabbit conjugate anti-human IgG and anti-human IgM labelled with horseradish peroxidase is added and, if the antigen/antibody complex is present, the conjugate binds to the complex. After a second wash, an enzyme substrate solution containing a chromogen is added. This solution develops a blue color if the sample is positive. The blue color changes to yellow after blocking the reaction with sulphuric acid. […]

GST-Tp17 or Tp17-HIS = assay: Antibacterial activity of lysozymes with or without Tp17 (EnzCheck); assay type: biochemical, Treponema pallidum; conditions: 1 unit human lysozyme or 230 units rLysozyme; 10 μg GST-Tp17 or Tp17-HIS
GST-Tp17 or Tp17-HIS, sequence (P29722 23-156 limits assumed): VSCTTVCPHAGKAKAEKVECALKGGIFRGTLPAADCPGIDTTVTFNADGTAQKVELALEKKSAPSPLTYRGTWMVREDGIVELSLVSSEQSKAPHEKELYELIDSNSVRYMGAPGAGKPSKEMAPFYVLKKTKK
Text: In that context, we compared the antibacterial activity of human lysozyme (Ventria Bioscience, Sacramento, Calif., USA) and rLysozyme™ using the EnzCheck Lysozyme assay (E-22013; Molecular Probes, Eugene, Oreg.). We first determined that under the manufacturer's prescribed assay conditions, 1 unit of human lysozyme produced the same intensity of fluorescence as 230 units of rLysozyme™. Next, we measured the fluorescence intensity of either 1 unit of human lysozyme or 230 units of rLysozyme™, in the presence or absence of 10 μg of either GST-Tp17 or Tp17-HIS. […] As a consequence, rLysozyme™ represents a novel and promising antimicrobial drug that could eventually substitute for chicken lysozyme in various therapeutic preparations intended for human and animal use. Additionally, it can be used as an antiseptic and/or as a food preservative.

[8] = test protein 83.5 to 1.3 μg/well

GST-Tp17: recombinant fusion of glutathione S-transferase and Treponema pallidum 17 kDa antigen Tp17 (SEQ ID NO:29)
binding to human lysozyme (lysozyme [1]): detected binding
inhibition of acetyl muramidase activity of chicken lysozyme (chicken lysozyme [2]; as little as 1.3 μg/well, 10 units chicken lysozyme): > 85%
inhibition of acetyl muramidase activity of human lysozyme (lysozyme [3]; as little as 1.3 μg/well, 50 units human lysozyme): > 85%
binding to chicken lysozyme (chicken lysozyme [4]): detected binding

recombinant human transgenic rice lysozyme: purified recombinant human lysozyme from transgenic rice (159-53LZ-90P; Ventria Bioscience)
specific activity [5]: 187,000 units/mg protein

sAPPα: longer recombinant fragment of β-APP derived from the APP695 isoform (Sigma S9564)
binding of POD-labeled human lysozyme (huLYS) (lysozyme [6]): bound

B1: GST-Tp47: control protein, GST fusion of T. pallidum Tp47 antigen (protein)
chain: CGSSHHETHYGYATLSYADYWAGELGQSRDVLLAGNAEADRAGDLDAGMFDAVSRATHGHGAFRQQFQYAVEVLGEKVLSKQETEDSRGRKKWEYETDPSVTKMVRASASFQDLGEDGEIKFEAVEGAVALADRASSFMVDSEEYKITNVKVHGMKFVPVAVPHELKGIAKEKFHFVEDSRVTENTNGLKTMLTEDSFSARKVSSMESPHDLVVDTVGTGYHSRFGSDAEASVMLKRADGSELSHREFIDYVMNFNTVRYDYYGDDASYTNLMASYGTKHSADSWWKTGRVPRISCGINYGFDRFKGSGPGYYRLTLIANGYRDVVADVRFLPKYEGNIDIGLKGKVLTIGGADAETLMDAAVDVFADGQPKLVSDQAVSLGQNVLSADFTPGTEYTVEVRFKEFGSVRAKVVAQ
modifications: left off: a dimerising Fc or GST
notes: control protein, GST fusion of T. pallidum Tp47 antigen
binding to human lysozyme (lysozyme [1]): No signal was detected
inhibitory effect on chicken lysozyme acetyl muramidase activity (in words) (chicken lysozyme [2]; [8]): did not exert any inhibitory effect
inhibitory effect on human lysozyme acetyl muramidase activity (in words) (lysozyme [3]; [8]): did not exert any inhibitory effect
binding to chicken lysozyme (chicken lysozyme [4]): No signal was detected

B2: human lysozyme: human lysozyme (NP_000230); breast milk-derived in Example 8, recombinant (Ventria) in Examples 10 and 16 (protein, listed as Homo sapiens)
chain: KVFERCELARTLKRLGMDGYRGISLANWMCLAKWESGYNTRATNYNAGDRSTDYGIFQINSRYWCNDGKTPGAVNACHLSCSALLQDNIADAVACAKRVVRDPQGIRAWVAWRNRCQNRDVRQYVQGCGV
increase in signal intensity ([7]; second generation format, lysozyme added to the plate at 2.86 μg/ml, syphilis-positive human sera): about 20%
increase in signal intensity ([7]; third generation format, lysozyme in sample dilution buffer (10.8 μg/ml) and conjugate dilution buffer (1.08 μg/ml), 3 out of 4 sera): about 200%
susceptibility of antibacterial activity to inhibition by GST-Tp17 or Tp17-HIS (GST-Tp17 or Tp17-HIS): strongly inhibited
